PMC5498496

Experiments:
[1] = αIIbβ3 cell surface expression, flow cytometry; details: glycan lost; control: wild-type β3 with αIIb
[2] = surface expression by mAbs 10E5, AP2, AP3, flow cytometry; details: glycan lost; control: wild-type αIIbβ3
[3] = eptifibatide-induced mAb binding, flow cytometry; details: glycan lost; control: wild-type β3 with αIIb
[4] = αVβ3 cell surface expression, flow cytometry; details: glycan lost; control: wild-type αV with β3

Protein | expression_or_secretion [1] | expression_or_secretion [4] | further results
integrin β3 subunit: β3-N320Q-N559Q (protein) parent chain: MRARPRPRPLWATVLALGALAGVGVGGPNICTTRGVSSCQQCLAVSPMCAWCSDEALPLGSPRCDLKENLLKDNCAPESIEFPVSEARVLEDRPLSDKGSGDSSQVTQVSPQRIALRLRPDDSKNFSIQVRQVEDYPVDIYYLMDLSYSMKDDLWSIQNLGTKLATQMRKLTSNLRIGFGAFVDKPVSPYMYISPPEALENPCYDMKTTCLPMFGYKHVLTLTDQVTRFNEEVKKQSVSRNRDAPEGGFDAIMQATVCDEKIGWRNDASHLLVFTTDAKTHIALDGRLAGIVQPNDGQCHVGSDNHYSASTTMDYPSLGLMTEKLSQKNINLIFAVTENVVNLYQNYSELIPGTTVGVLSMDSSNVLQLIVDAYGKIRSKVELEVRDLPEELSLSFNATCLNNEVIPGLKSCMGLKIGDTVSFSIEAKVRGCPQEKEKSFTIKPVGFKDSLIVQVTFDCDCACQAQAEPNSHRCNNGNGTFECGVCRCGPGWLGSQCECSEEDYRPSQQDECSPREGQPVCSQRGECLCGQCVCHSSDFGKITGKYCECDDFSCVRYKGEMCSGHGQCSCGDCLCDSDWTGYYCNCTTRTDTCMSSNGLLCSGRGKCECGSCVCIQPGSYGDTCEKCPTCPDACTFKKECVECKKFDRGALHDENTCNRYCRDEIESVKELKDTGKDAVNCTYKNEDDCVVRFQYYEDSSGKSILYVVEEPECPKGPDILVVLLSVMGAILLIGLAALLIWKLLITIHDRKEFAKFEEERARAKWDTANNPLYKEATSTFTNITYRGT | decreases |  | 
integrin β3 subunit: β3-N320S (protein) parent chain: MRARPRPRPLWATVLALGALAGVGVGGPNICTTRGVSSCQQCLAVSPMCAWCSDEALPLGSPRCDLKENLLKDNCAPESIEFPVSEARVLEDRPLSDKGSGDSSQVTQVSPQRIALRLRPDDSKNFSIQVRQVEDYPVDIYYLMDLSYSMKDDLWSIQNLGTKLATQMRKLTSNLRIGFGAFVDKPVSPYMYISPPEALENPCYDMKTTCLPMFGYKHVLTLTDQVTRFNEEVKKQSVSRNRDAPEGGFDAIMQATVCDEKIGWRNDASHLLVFTTDAKTHIALDGRLAGIVQPNDGQCHVGSDNHYSASTTMDYPSLGLMTEKLSQKNINLIFAVTENVVNLYQNYSELIPGTTVGVLSMDSSNVLQLIVDAYGKIRSKVELEVRDLPEELSLSFNATCLNNEVIPGLKSCMGLKIGDTVSFSIEAKVRGCPQEKEKSFTIKPVGFKDSLIVQVTFDCDCACQAQAEPNSHRCNNGNGTFECGVCRCGPGWLGSQCECSEEDYRPSQQDECSPREGQPVCSQRGECLCGQCVCHSSDFGKITGKYCECDDFSCVRYKGEMCSGHGQCSCGDCLCDSDWTGYYCNCTTRTDTCMSSNGLLCSGRGKCECGSCVCIQPGSYGDTCEKCPTCPDACTFKKECVECKKFDRGALHDENTCNRYCRDEIESVKELKDTGKDAVNCTYKNEDDCVVRFQYYEDSSGKSILYVVEEPECPKGPDILVVLLSVMGAILLIGLAALLIWKLLITIHDRKEFAKFEEERARAKWDTANNPLYKEATSTFTNITYRGT | decreases |  | 
integrin β3 subunit: β3-N320R (protein) parent chain: MRARPRPRPLWATVLALGALAGVGVGGPNICTTRGVSSCQQCLAVSPMCAWCSDEALPLGSPRCDLKENLLKDNCAPESIEFPVSEARVLEDRPLSDKGSGDSSQVTQVSPQRIALRLRPDDSKNFSIQVRQVEDYPVDIYYLMDLSYSMKDDLWSIQNLGTKLATQMRKLTSNLRIGFGAFVDKPVSPYMYISPPEALENPCYDMKTTCLPMFGYKHVLTLTDQVTRFNEEVKKQSVSRNRDAPEGGFDAIMQATVCDEKIGWRNDASHLLVFTTDAKTHIALDGRLAGIVQPNDGQCHVGSDNHYSASTTMDYPSLGLMTEKLSQKNINLIFAVTENVVNLYQNYSELIPGTTVGVLSMDSSNVLQLIVDAYGKIRSKVELEVRDLPEELSLSFNATCLNNEVIPGLKSCMGLKIGDTVSFSIEAKVRGCPQEKEKSFTIKPVGFKDSLIVQVTFDCDCACQAQAEPNSHRCNNGNGTFECGVCRCGPGWLGSQCECSEEDYRPSQQDECSPREGQPVCSQRGECLCGQCVCHSSDFGKITGKYCECDDFSCVRYKGEMCSGHGQCSCGDCLCDSDWTGYYCNCTTRTDTCMSSNGLLCSGRGKCECGSCVCIQPGSYGDTCEKCPTCPDACTFKKECVECKKFDRGALHDENTCNRYCRDEIESVKELKDTGKDAVNCTYKNEDDCVVRFQYYEDSSGKSILYVVEEPECPKGPDILVVLLSVMGAILLIGLAALLIWKLLITIHDRKEFAKFEEERARAKWDTANNPLYKEATSTFTNITYRGT |  |  | expression_or_secretion [2]: no change; structure_or_conformation [3]: decreases
integrin αV subunit: αV-N950Q (protein) parent chain: MAFPPRRRLRLGPRGLPLLLSGLLLPLCRAFNLDVDSPAEYSGPEGSYFGFAVDFFVPSASSRMFLLVGAPKANTTQPGIVEGGQVLKCDWSSTRRCQPIEFDATGNRDYAKDDPLEFKSHQWFGASVRSKQDKILACAPLYHWRTEMKQEREPVGTCFLQDGTKTVEYAPCRSQDIDADGQGFCQGGFSIDFTKADRVLLGGPGSFYWQGQLISDQVAEIVSKYDPNVYSIKYNNQLATRTAQAIFDDSYLGYSVAVGDFNGDGIDDFVSGVPRAARTLGMVYIYDGKNMSSLYNFTGEQMAAYFGFSVAATDINGDDYADVFIGAPLFMDRGSDGKLQEVGQVSVSLQRASGDFQTTKLNGFEVFARFGSAIAPLGDLDQDGFNDIAIAAPYGGEDKKGIVYIFNGRSTGLNAVPSQILEGQWAARSMPPSFGYSMKGATDIDKNGYPDLIVGAFGVDRAILYRARPVITVNAGLEVYPSILNQDNKTCSLPGTALKVSCFNVRFCLKADGKGVLPRKLNFQVELLLDKLKQKGAIRRALFLYSRSPSHSKNMTISRGGLMQCEELIAYLRDESEFRDKLTPITIFMEYRLDYRTAADTTGLQPILNQFTPANISRQAHILLDCGEDNVCKPKLEVSVDSDQKKIYIGDDNPLTLIVKAQNQGEGAYEAELIVSIPLQADFIGVVRNNEALARLSCAFKTENQTRQVVCDLGNPMKAGTQLLAGLRFSVHQQSEMDTSVKFDLQIQSSNLFDKVSPVVSHKVDLAVLAAVEIRGVSSPDHVFLPIPNWEHKENPETEEDVGPVVQHIYELRNNGPSSFSKAMLHLQWPYKYNNNTLLYILHYDIDGPMNCTSDMEINPLRIKISSLQTTEKNDTVAGQGERDHLITKRDLALSEGDIHTLGCGVAQCLKIVCQVGRLDRGKSAILYVKSLLWTETFMNKENQNHSYSLKSSASFNVIEFPYKNLPIEDITNSTLVTTNVTWGIQPAPMPVPVWVIILAVLAGLLLLAVLVFVMYRMGFFKRVRPPQEEQEREQLQPHENGEGNSET |  | decreases | 
integrin αV subunit: αV-N943Q (protein) parent chain: MAFPPRRRLRLGPRGLPLLLSGLLLPLCRAFNLDVDSPAEYSGPEGSYFGFAVDFFVPSASSRMFLLVGAPKANTTQPGIVEGGQVLKCDWSSTRRCQPIEFDATGNRDYAKDDPLEFKSHQWFGASVRSKQDKILACAPLYHWRTEMKQEREPVGTCFLQDGTKTVEYAPCRSQDIDADGQGFCQGGFSIDFTKADRVLLGGPGSFYWQGQLISDQVAEIVSKYDPNVYSIKYNNQLATRTAQAIFDDSYLGYSVAVGDFNGDGIDDFVSGVPRAARTLGMVYIYDGKNMSSLYNFTGEQMAAYFGFSVAATDINGDDYADVFIGAPLFMDRGSDGKLQEVGQVSVSLQRASGDFQTTKLNGFEVFARFGSAIAPLGDLDQDGFNDIAIAAPYGGEDKKGIVYIFNGRSTGLNAVPSQILEGQWAARSMPPSFGYSMKGATDIDKNGYPDLIVGAFGVDRAILYRARPVITVNAGLEVYPSILNQDNKTCSLPGTALKVSCFNVRFCLKADGKGVLPRKLNFQVELLLDKLKQKGAIRRALFLYSRSPSHSKNMTISRGGLMQCEELIAYLRDESEFRDKLTPITIFMEYRLDYRTAADTTGLQPILNQFTPANISRQAHILLDCGEDNVCKPKLEVSVDSDQKKIYIGDDNPLTLIVKAQNQGEGAYEAELIVSIPLQADFIGVVRNNEALARLSCAFKTENQTRQVVCDLGNPMKAGTQLLAGLRFSVHQQSEMDTSVKFDLQIQSSNLFDKVSPVVSHKVDLAVLAAVEIRGVSSPDHVFLPIPNWEHKENPETEEDVGPVVQHIYELRNNGPSSFSKAMLHLQWPYKYNNNTLLYILHYDIDGPMNCTSDMEINPLRIKISSLQTTEKNDTVAGQGERDHLITKRDLALSEGDIHTLGCGVAQCLKIVCQVGRLDRGKSAILYVKSLLWTETFMNKENQNHSYSLKSSASFNVIEFPYKNLPIEDITNSTLVTTNVTWGIQPAPMPVPVWVIILAVLAGLLLLAVLVFVMYRMGFFKRVRPPQEEQEREQLQPHENGEGNSET |  | decreases | 
integrin αV subunit: αV-N458Q (protein) parent chain: MAFPPRRRLRLGPRGLPLLLSGLLLPLCRAFNLDVDSPAEYSGPEGSYFGFAVDFFVPSASSRMFLLVGAPKANTTQPGIVEGGQVLKCDWSSTRRCQPIEFDATGNRDYAKDDPLEFKSHQWFGASVRSKQDKILACAPLYHWRTEMKQEREPVGTCFLQDGTKTVEYAPCRSQDIDADGQGFCQGGFSIDFTKADRVLLGGPGSFYWQGQLISDQVAEIVSKYDPNVYSIKYNNQLATRTAQAIFDDSYLGYSVAVGDFNGDGIDDFVSGVPRAARTLGMVYIYDGKNMSSLYNFTGEQMAAYFGFSVAATDINGDDYADVFIGAPLFMDRGSDGKLQEVGQVSVSLQRASGDFQTTKLNGFEVFARFGSAIAPLGDLDQDGFNDIAIAAPYGGEDKKGIVYIFNGRSTGLNAVPSQILEGQWAARSMPPSFGYSMKGATDIDKNGYPDLIVGAFGVDRAILYRARPVITVNAGLEVYPSILNQDNKTCSLPGTALKVSCFNVRFCLKADGKGVLPRKLNFQVELLLDKLKQKGAIRRALFLYSRSPSHSKNMTISRGGLMQCEELIAYLRDESEFRDKLTPITIFMEYRLDYRTAADTTGLQPILNQFTPANISRQAHILLDCGEDNVCKPKLEVSVDSDQKKIYIGDDNPLTLIVKAQNQGEGAYEAELIVSIPLQADFIGVVRNNEALARLSCAFKTENQTRQVVCDLGNPMKAGTQLLAGLRFSVHQQSEMDTSVKFDLQIQSSNLFDKVSPVVSHKVDLAVLAAVEIRGVSSPDHVFLPIPNWEHKENPETEEDVGPVVQHIYELRNNGPSSFSKAMLHLQWPYKYNNNTLLYILHYDIDGPMNCTSDMEINPLRIKISSLQTTEKNDTVAGQGERDHLITKRDLALSEGDIHTLGCGVAQCLKIVCQVGRLDRGKSAILYVKSLLWTETFMNKENQNHSYSLKSSASFNVIEFPYKNLPIEDITNSTLVTTNVTWGIQPAPMPVPVWVIILAVLAGLLLLAVLVFVMYRMGFFKRVRPPQEEQEREQLQPHENGEGNSET |  | no change | 
